The record followed here is the nanobody polyreactivity screen of Harvey et al. (2022).

A short description of the series: yeast display, Sf9 membrane polyspecificity reagent, FACS + sequencing; frameworks hold sequencing errors. In a few lines: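 Galactose induction of a Saccharomyces cerevisiae BJ5465 synthetic nanobody display library ran 36–48 hours. The cells were then stained for 1 hour at 4 °C with 10% biotinylated, detergent-solubilized Sf9 membrane reagent, pulled down on streptavidin microbeads and FACS-sorted into low and high (top ~1%) gates on expression and reagent-binding fluorescence. Labels for polyreactivity follow the gate of origin.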
“QVQLVESGGGLVQAGGSLRLSCAASGRIFTTYAMGWYRQAPGKERELVASISWRVGSTYYADTVKGRFTISRDNAKITVYLQMNSLKPEETAVYYCAAVGGNYHASRLRYYWGQVTQVTVSS”: the “polyreactivity (PSR sort gate)” value was “low polyreactivity”.
With “QVQLVESGGGLVQAGGSLRLSCAASGRIFTTYVMGCYRQAPGKERELVAAISWSGGNTYYADSVKGRFTISRDNAKNTVYLQMNSLKPEDTAVYYCNAVGTIREGDYWGQGTQVTVSS”, the “polyreactivity (PSR sort gate)” value is “low polyreactivity”.
Consider “QVQLVESGGGLVQAGGSLRLSCAASGRIFTWNAMGWYRQAPGKERELVASISRSGTSTYYADSVKGRFTISRDNAKNSVYLQMNSLKAEDTAVYYCAAKRYGYKMYYWGQGTQVTVSS”, for which the “polyreactivity (PSR sort gate)” value is on record as “high polyreactivity”.
To “QVQLVESGGGLVQAGGSLRLSCAASGRIFTYAMGWYRQAPGKERELVAAISRRGGSTYYADSVKGRFTISRDNAKNTVYLQMNSLKPEDTAVYYCAKERSFGDGNFDYEYWGQGTQVTVSS” belongs “high polyreactivity”; to “QVQLVESGGGLVQAGGSLRLSCAASGRIFTYYAMGWYRQAPGKEREFVAAISRSGGSTYYADSVKGRFTISRDNAKNTVYFQMNSLKPEDTAVYSCAADPPYRGRRGFDHNYWGQGTQVTVSS”, “high polyreactivity”; to “QVQLVESGGGLVQAGGSLRLSCAASGRIFTYYAMGWYRQAPGKERELVAAINFNSGSTYYADSVKGRFTISRDTAKNTVYLQMNSLKPEDTAVYYCAAVPRRGLPKSYYYWGQGTQVTVSS”, “high polyreactivity”.
The same measure for “QVQLVESGGGLVQAGGSLRLSCAASGRIFTYYAMGWYRQAPGKERELVAAITGSGGSTYYADSVKGRFTISRDNAKNTVYLQMNSLKPEDTAVYYCAAYWFTATWYYYWGQGTQVTVSS”: “high polyreactivity”; for “QVQLVESGGGLVQAGGSLRLSCAASGRIFTYYAMGWYRQAPGKERELVASITGSGGSTDYADSVKGRFTISLDNAKNTVYLQMNSLKPEDTAVYYCAADHSGVSRYDYWGQGTQVTVSS”: “low polyreactivity”; for “QVQLVESGGGLVQAGGSLRLSCAASGRIFTYYAMGWYRQVPGKERELVAGISGSGTSTYYADSVKGRFTISRDNAKNTVYLQMNSLKPEDTAVYYCAAIRRQKGLWDYYYWGQGTQVTVSS”: “low polyreactivity”.
Consider “QVQLVESGGGLVQAGGSLRLSCAASGRIFVANAMGWYRPAPGKERELVAAISGRGSRTYYADSVKGRFTISRDNAKNTVYLQMNSLKPEDTAVYYCAVRKNRQYTGDYWGQGTQVTVSS”, for which the “polyreactivity (PSR sort gate)” value is “high polyreactivity”.
To “QVQLVESGGGLVQAGGSLRLSCAASGRIFVANAMGWYRQAPGKERELVAAISGRGSRTYYADSVKGRFTISRDNAKNTVYLQMNSLKPEDTAVYYCAARYRYDGRYDYWGQGTQVTVSS” belongs “high polyreactivity”; to “QVQLVESGGGLVQAGGSLRLSCAASGRIFVANAMGWYRQAPGKERELVAAISSSGSTNYADSVKGRFTISRDNAKNTVYLQMNSLKPEDTAVYYCAKQHLSTGSWFDPFEMDYWGQGTQVTVSS”, “low polyreactivity”.
In the case of “QVQLVESGGGLVQAGGSLRLSCAASGRIFVFNAMGWYRQAPGKERELVAAITWSGGTTYYADSVKGRFTISRDNAKNTVYLQMNSLKPEDTAVYFCNAYLNRRMGYWGQGTQVTVSS”, the “polyreactivity (PSR sort gate)” value is recorded as “high polyreactivity”.
Consider “QVQLVESGGGLVQAGGSLRLSCAASGRIFVFNDMGWYRQAPGKERELVAAISSGGNTYYADSVKGRFTISRDNAKNTVYLQMNSLKPEDTAVYYCAKVSRWSYKGSPYDYWGQGTQVTVSS”, for which the “polyreactivity (PSR sort gate)” value is reported as “high polyreactivity”.
On to “QVQLVESGGGLVQAGGSLRLSCAASGRIFVGNAMGWYRQAPGKERELVAAISRSGGRTYYADSVKGRFTISRDNAKNTVYLQMNSLKPEDTAVYYCYTRVYAGKYDYWGQGTQVTVSS”, for which the “polyreactivity (PSR sort gate)” value was “high polyreactivity”.
With “QVQLVESGGGLVQAGGSLRLSCAASGRIFVGYAMGWYRQAPGKERELVAAISRGGSTNYADSVKGRFTISRDNAKNTVYLQMNSLKPDDTAVYYCAKTYRTRWWGNGGDYWGQGTQVTVSS”, the “polyreactivity (PSR sort gate)” value is recorded as “high polyreactivity”.
Take “QVQLVESGGGLVQAGGSLRLSCAASGRIFVGYAMGWYRQAPGKVREFFAAITWSGGSTSYADSVKGRFTISRDNAKNTVYLQKNSLKPEDTAVYYCNARRYYYFGLSLYEYDYWGQGTQVTVSS”: the “polyreactivity (PSR sort gate)” value was “low polyreactivity”.
For “QVQLVESGGGLVQAGGSLRLSCAASGRIFVINAMGWYRQAPGKERELVAAISSSGGSTSYADSVKGRFTISRDNAKNTVYFQMNSLKPEDTAVYYCAAKPRVRRVDGYYWGQGTQVTVSS”, the “polyreactivity (PSR sort gate)” value was “high polyreactivity”.
In the case of “QVQLVESGGGLVQAGGSLRLSCAASGRIFVINAMGWYRQAPGKERELVAAISSSGGSTSYADSVKGRFTISRDNAKNTVYLQMNSLKPEDTAVYYCAAKPRVRRVDGYYWGQGSQVTVSS”, the “polyreactivity (PSR sort gate)” value is given as “high polyreactivity”.
Regarding “QVQLVESGGGLVQAGGSLRLSCAASGRIFVIYAMGWYRQAPGKERELVAVISSDGSTYYADSVKGRFTISRDNAKNTVYLQMNSLKPEDTAVYYCAADRIGRYRPYIGWVVRSYYWGQGTQVTVSS”, the “polyreactivity (PSR sort gate)” value is “low polyreactivity”.
The same measure for “QVQLVESGGGLVQAGGSLRLSCAASGRIFVLYAMGWYRHSPGKERELVAAINWSGGSTFYADSVKGRFTISRDNAKNTVYLQMNSLKPEDTAVYYCNARGLRVKYDYWGQGTQVTVSS”: “high polyreactivity”; for “QVQLVESGGGLVQAGGSLRLSCAASGRIFVLYAMGWYRQAPGKERELVAAINWSGGSTFYADSVKGRFTISRDNAKNTVYLQMNSLKPEDTAVYYCAADPYFWSALRIGQNDYWGQGTQVTVSS”: “high polyreactivity”; for “QVQLVESGGGLVQAGGSLRLSCAASGRIFVNNAMGWYRPAPGKERELVAAISKRGGSTYYADSLKGRFTISRDNAMNTVYLHMNSLKPEDTAVYYCAASGYRYPIDGDYWGQGTEVTVSS”: “high polyreactivity”.
As for “QVQLVESGGGLVQAGGSLRLSCAASGRIFVNYAMGWYRQAPGKERELVAAITSSGGSTYYADSVKGRFTISRDNAKNTVYLQMNSLKPEDTAVYYCAARWGRGLEFDYWGQGTQVTVSS”, the “polyreactivity (PSR sort gate)” value is “high polyreactivity”.
“QVQLVESGGGLVQAGGSLRLSCAASGRIFVPYVMGWYRQAPGKERELVAAISSSGGSTYYADSVKGRFTISRDNAKNTVYLQMNSLKQEDTAVYYCAKPYYFHEEDHWGQGSQVTVSS”: the “polyreactivity (PSR sort gate)” value is recorded as “low polyreactivity”.
Take “QVQLVESGGGLVQAGGSLRLSCAASGRIFVPYVMGWYRQAPGKERELVASISDSDTSTYYADSVKGRFTISRDNAKNTVYLQMNCLKPEDTAVYYCNVDYWGQGTQVTVSS”: the “polyreactivity (PSR sort gate)” value is given as “low polyreactivity”.
For “QVQLVESGGGLVQAGGSLRLSCAASGRIFVPYVMGWYRQAPGKERELVASISDSDTSTYYADSVKGRFTISRDNAKNTVYLQMNSLKPEDSAVYYCNVDYWGQGTQVTVSS”, the “polyreactivity (PSR sort gate)” value is “low polyreactivity”.
The same measure for “QVQLVESGGGLVQAGGSLRLSCAASGRIFVPYVMGWYRQAPGKERELVASISDSDTSTYYADSVKGRFTISRDNAKNTVYVQMNSLKPEDTAVYYCNVDYWGQGTQVTVSS”: “low polyreactivity”; for “QVQLVESGGGLVQAGGSLRLSCAASGRIFVQYAMGWYRQAPGKERELVAAISGSGGRTYYADSVKGRFTISRDNAKNTVYLQMNSLKPEDTAVYYCNTARLHGQTQGGDYWGQGTQVTVSS”: “high polyreactivity”; for “QVQLVESGGGLVQAGGSLRLSCAASGRIFVQYAMGWYRQAPGKERELVAAISGSGGRTYYADSVKGRFTISRDNAKNTVYLQMNSLKPEDTAVYYCNTARRHGQTQGGDYWGQGTQLTVSS”: “high polyreactivity”.
